No end group written: not given here.
What was measured:
[1] = target: T1, osteopontin (OPN), recombinant human (human, UniProt P10451 17-314); assay: SPR
[2] = target: T1, osteopontin (OPN), recombinant human; assay: SPR; remark: listed apart in the source

T1 sequence (P10451 17-314): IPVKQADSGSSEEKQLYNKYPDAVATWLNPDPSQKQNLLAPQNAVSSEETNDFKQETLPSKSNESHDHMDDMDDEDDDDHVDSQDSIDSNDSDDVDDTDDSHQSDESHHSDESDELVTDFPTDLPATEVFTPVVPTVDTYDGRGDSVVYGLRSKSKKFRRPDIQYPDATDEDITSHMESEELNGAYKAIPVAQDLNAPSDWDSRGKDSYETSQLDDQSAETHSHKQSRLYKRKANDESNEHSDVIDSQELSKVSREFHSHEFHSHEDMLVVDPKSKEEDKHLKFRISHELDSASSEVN

B1: midkine (natural protein)
chain: VAKKKDKVKKGGPGSECAEWAWGPCTPSSKDCGVGFREGTCGAQTQRIRCRVPCNWKKEFGADCKYKFENWGACDGGTGTKVRQGTLKKARYNAQCQETIRVTKPCTPKTKAKAKAKKGKGKD
- Kd [1]: 27 nM

B2: lactoferrin purified from human milk (natural protein)
chain: GRRRSVQWCAVSQPEATKCFQWQRNMRKVRGPPVSCIKRDSPIQCIQAIAENRADAVTLDGGFIYEAGLAPYKLRPVAAEVYGTERQPRTHYYAVAVVKKGGSFQLNELQGLKSCHTGLRRTAGWNVPIGTLRPFLNWTGPPEPIEAAVARFFSASCVPGADKGQFPNLCRLCAGTGENKCAFSSQEPYFSYSGAFKCLRDGAGDVAFIRESTVFEDLSDEAERDEYELLCPDNTRKPVDKFKDCHLARVPSHAVVARSVNGKEDAIWNLLRQAQEKFGKDKSPKFQLFGSPSGQKDLLFKDSAIGFSRVPPRIDSGLYLGSGYFTAIQNLRKSEEEVAARRARVVWCAVGEQELRKCNQWSGLSEGSVTCSSASTTEDCIALVLKGEADAMSLDGGYVYTAGKCGLVPVLAENYKSQQSSDPDPNCVDRPVEGYLAVAVVRRSDTSLTWNSVKGKKSCHTAVDRTAGWNIPMGLLFNQTGSCKFDEYFSQSCAPGSDPRSNLCALCIGDEQGENKCVPNSNERYYGYTGAFRCLAENAGDVAFVKDVTVLQNTDGNNNEAWAKDLKLADFALLCLDGKRKPVTEARSCHLAMAPNHAVVSRMDKVERLKQVLLHQQAKFGRNGSDCPDKFCLFQSETKNLLFNDNTECLARLHGKTTYEKYLGPQYVAGITNLKKCSTSPLLEACEFLRK
- koff [2]: 0.01 s⁻¹
- Kd [1]: 2500 nM

B3: secretory leukocyte peptidase inhibitor (SLPI), recombinant human (natural protein)
chain: SGKSFKAGVCPPKKSAQCLRYKKPECQSDWQCPGKKRCCPDTCGIKCLDPVDTPNPTRRKPGKCPVTYGQCLMLNPPNFCEMDGQCKRDLKCCMGMCGKSCVSPVKA
- koff [2]: 0.0016 s⁻¹
- Kd [1]: 430 nM

Binder: GIINTLQKYYCRVRGGRCAVLSCLPKEEQIGKCSTRGRKCCRRKK (natural protein, ends and bridges not checked; cysteine pairing not given here) [human beta defensin-3 (hBD-3)]
- koff [2]: 0.02 s⁻¹
- Kd [1]: 790 nM
